Results reported in patent US20260108618A1 (published 2026).

B1: rat FcγR3A/CD16a (receptor)
chain: GLQKAVVNLDPEWVRVLEEDCVILRCQGTFSPEDNSTKWFHNKSLISHQDANYVIQSARVKDSGMYRCQTAFSALSDPVQLDVHADWLLLQTTKRLFQEGDPIRLRCHSWRNTPVFKVTYLQNGKGKKYFHRNSELSISKATHADSGSYFCRGIIGRNNISSASLQISIGDPTSPSSFLPWHQ
B2: mouse FcγR2B/CD32b (receptor)
chain: THDLPKAVVKLEPPWIQVLKEDTVTLTCEGTHNPGNSSTQWFHNGRSIRSQVQASYTFKATVNDSGEYRCQMEQTRLSDPVDLGVISDWLLLQTPQLVFLEGETITLRCHSWRNKLLNRISFFHNEKSVRYHHYSSNFSIPKANHSHSGDYYCKGSLGRTLHQSKPVTITVQGPKSSR
notes: also called murine Fcγ RIIb
B3: human Fcγ RIIb (receptor)
chain: APPKAVLKLEPQWINVLQEDSVTLTCRGTHSPESDSIQWFHNGNLIPTHTQPSYRFKANNNDSGEYTCQTGQTSLSDPVHLTVLSEWLVLQTPHLEFQEGETIVLRCHSWKDKPLVKVTFFQNGKSKKFSRSDPNFSIPQANHSHSGDYHCTGNIGYTLYSSKPVTITVQAP

Columns and labels:
[1] = target: T1, Conjugate 45b (human, UniProt P0DOX5 203-448 = IgG part); assay: ELISA: conjugate coated on the plate, His-tagged receptor titrated, anti-His HRP detection
[2] = target: T1, Conjugate 45b; assay: ELISA

Row | Binder | binding result [1] | binding result [2]
1 | B1 | binds | 
2 | B2 |  | binds
3 | B3 |  | binds
